Where “and” joins values, the source holds several entries; their conditions need not be identical. Equal entries are not always repeated.
Biological target: T1, rabbit GH receptor (rabbit) (UniProt P19941)
T1 sequence (looked up): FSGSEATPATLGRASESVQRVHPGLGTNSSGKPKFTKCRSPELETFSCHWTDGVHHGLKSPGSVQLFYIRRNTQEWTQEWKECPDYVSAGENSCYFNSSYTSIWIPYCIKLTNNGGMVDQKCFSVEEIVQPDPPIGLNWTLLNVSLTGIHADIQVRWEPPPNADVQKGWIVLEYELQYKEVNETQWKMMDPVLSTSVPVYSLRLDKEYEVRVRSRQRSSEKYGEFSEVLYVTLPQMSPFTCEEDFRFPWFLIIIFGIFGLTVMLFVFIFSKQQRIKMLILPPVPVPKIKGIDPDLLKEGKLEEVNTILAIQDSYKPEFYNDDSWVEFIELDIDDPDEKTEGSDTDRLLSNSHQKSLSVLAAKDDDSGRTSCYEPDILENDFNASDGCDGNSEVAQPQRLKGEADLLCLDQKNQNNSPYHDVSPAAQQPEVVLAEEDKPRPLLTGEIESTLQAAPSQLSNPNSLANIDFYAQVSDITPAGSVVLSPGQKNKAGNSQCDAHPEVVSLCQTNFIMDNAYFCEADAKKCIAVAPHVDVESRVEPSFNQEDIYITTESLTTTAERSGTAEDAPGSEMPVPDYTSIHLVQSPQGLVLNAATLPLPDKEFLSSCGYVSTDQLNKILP
Assay: cell-based or functional assay

PEG-S144C hGH (mono-PEGylated S144C) (from UniProt P01241 27-217) (ligand)
EC50 of single experiments, cell proliferation assay (Example 1): 40 ng/mL and 45 ng/mL

hGH cysteine mutein S144C (from UniProt P01241 27-217) (ligand)
Mean EC50 (ng/ml), proliferation of GH-R4 cells (MTS): 1.6 ng/mL

hGH cysteine mutein T3C, disulfide-linked homodimer (from UniProt P01241 27-217) (ligand)
Mean EC50 (ng/ml), proliferation of GH-R4 cells (MTS): 1.4 ng/mL

hGH cysteine mutein T148C (from UniProt P01241 27-217) (ligand)
Mean EC50 (ng/ml), proliferation of GH-R4 cells (MTS); T148C-lotA: 0.5 ng/mL
Mean EC50 (ng/ml), proliferation of GH-R4 cells (MTS); T148C-lotB: 2.5 ng/mL

wild-type rhGH (secreted from E. coli with the stII signal sequence) (from UniProt P01241 27-217) (ligand)
Mean EC50 (ng/ml), proliferation of GH-R4 cells (MTS): 0.8 ng/mL

Reference: US20050026834A1
